Sequences and labels used below:
B1: hMAB-A (2.2) (antibody, human IgG1, kappa, V domains shown)
VH: EVQLVESGGGLVKPGGSLRLSCAASGFTFSSYWMHWVRQAPGKGLEWVGEIIPIFGHTNYNEKFKSRFTISLDNSKNTLYLQMGSLRAEDTAVYYCARGGYYYYGSRDYFDYWGQGTTVTVSS
VL: DIVMTQSPDSLAVSLGERATISCKASQSVDYSGDSYMNWYQQKPGQPPKLLIYAASDLESGIPARFSGSGSGTDFTLTISSLEPEDFATYYCQQSHEDPFTFGQGTKLEIKR
B2: hMAB-A (2B.2) (antibody, V domains shown)
VH: B1 VH with G105I, S106G, R107K, D108G, Y109V, F110L
VL: DIVMTQSPDSLAVSLGERATISCKASQSVDYSGDSYMNWYQQKPGQPPKLLIYAASDLESGIPARFSGSGSGTDFTLTISSLEPEDFATYYCQQSHEDPFTFGQGTKLEIK
B3: hMAB-A (2C.2) (antibody, human IgG1, kappa, V domains shown)
VH: B1 VH with G105P, S106R, R107F, D108G, Y109W, F110L
VL: B1 VL
B4: hMAB-A (2D.2) (antibody, V domains shown)
VH: B1 VH with G105T, S106G, R107K, D108G, Y109V, F110L
VL: B2 VL

Numbering of substitutions follows the chain as printed.

The target of this test is His peptide-tagged soluble cynoADAM9 (cynoADAM9-His) (cynomolgus monkey). The experiment in a line: SPR (BIACORE), antibody captured, cynoADAM9-His in flow. (In general: In SPR one partner is held on a chip, and binding of the other changes the refractive index at the surface.)
For B1, the Kd (as a rule, the free concentration of one partner at which half of the binding sites on the other are occupied at equilibrium, for simple one-to-one binding) was 110 nM; the koff – broadly, the rate constant with which the complex falls apart – was 0.022 s⁻¹; the kon – broadly, the second-order rate constant of association – stood at 200000 M⁻¹ s⁻¹.

The molecule B2 displayed a Kd of 0.2 nM, a koff of 6.6e-05 s⁻¹ and a kon of 340000 M⁻¹ s⁻¹.

In the case of B3, the Kd is < 0.3 nM, the koff is < 1e-05 s⁻¹ and the kon worked out at 350000 M⁻¹ s⁻¹.

For B4, the Kd was 0.7 nM, the koff was 0.0003 s⁻¹ and the kon was found to be 420000 M⁻¹ s⁻¹.

The values are drawn from US20210388102A1.
